Publication PMC10104585, “Yeast PIC-Mediator structure with RNA polymerase II C-terminal domain” (Proceedings of the National Academy of Sciences of the …, 2023)

B1: Med21 (natural protein, S. cerevisiae)
chain: MTDRLTQLQICLDQMTEQFCATLNYIDKNHGFERLTVNEPQMSDKHATVVPPEEFSNTIDELSTDIILKTRQINKLIDSLPGVDVSAEEQLRKIDMLQKKLVEVEDEKIEAIKKKEKLLRHVDSLIEDFVDGIANSKKST
notes: Med21, Mediator subunit (hook domain), S. cerevisiae; Stood in the assay as a subunit of cMed
B2: Med17 (natural protein, S. cerevisiae)
chain: MTTEDPDSNHLSSETGIKLALDPNLITLALSSNPNSSLHSPTSDEPVPESAGKADTSIRLEGDELENKTKKDNDKNLKFLKNKDSLVSNPHEIYGSMPLEQLIPIILRQRGPGFKFVDLNEKELQNEIKQLGSDSSDGHNSEKKDTDGADENVQIGEDFMEVDYEDKDNPVDSRNETDHKTNENGETDDNIETVMTQEQFVKRRRDMLEHINLAMNESSLALEFVSLLLSSVKESTGMSSMSPFLRKVVKPSSLNSDKIPYVAPTKKEYIELDILNKGWKLQSLNESKDLLRASFNKLSSILQNEHDYWNKIMQSISNKDVIFKIRDRTSGQKLLAIKYGYEDSGSTYKHDRGIANIRNNIESQNLDLIPHSSSVFKGTDFVHSVKKFLRVRIFTKIESEDDYILSGESVMDRDSESEEAETKDIRKQIQLLKKIIFEKELMYQIKKECALLISYGVSIENENKVIIELPNEKFEIELLSLDDDSIVNHEQDLPKINDKRANLMLVMLRLLLVVIFKKTLRSRISSPHGLINLNVDDDILIIRPILGKVRFANYKLLLKKIIKDYVLDIVPGSSITETEVEREQPQENKNIDDENITKLNKEIRAFDKLLNIPRRELKINLPLTEHKSPNLSLMLESPNYCNALIHIKFSAGTEANAVSFDTTFSDFKEVEDFLHFIVAEYIQQKKV
notes: Med17, Mediator head module subunit, S. cerevisiae; Stood in the assay as a subunit of cMed
B3: Med8 (natural protein, S. cerevisiae)
chain: MSQSTASLVPEGNQGSLQEDVSFDFNGVPGQALDAVRMRLAQLTHSLRRIRDEMSKAELPQWYTLQSQLNVTLSQLVSVTSTLQHFQETLDSTVVYPLPKFPTTSHESLVTTLLRKKNIPEVDEWMKYVRETSGVTTALLKDEEIEKLLQQDREITNWARTTFRNEYGKHDFKNEESLSEEHASLLVRDSKPSKPFNVDDVLKFTFTGEKPIITGSTSTSSSN
notes: Med8, Mediator head module subunit, S. cerevisiae; Stood in the assay as a subunit of cMed
B4: Med10 (natural protein, S. cerevisiae)
chain: MNGNSTNNEQLQQELATTQDQVASIIESFVELGVSIYDFPGTPEATKGMITNLQRNVDRLYKLNVRSNDPQSSLSKVDIPLEVVQYIEDGRNPDIYTREFVEAIRRSNQYQRGKMHGLKQLRDSLADKIVDEFPELKEPVEDIIKRTSPIDNVSNTH
notes: Med10, Mediator subunit (hook domain), S. cerevisiae; Stood in the assay as a subunit of cMed
B5: Med7 (natural protein, S. cerevisiae, UniProt Q08278 1-222, looked up)
chain: MSNDPGNEVSSLYPPPPPYVKFFTQSNLEKLPKYKEKKAASAKQTAPNNSNGGSEEEITCALDYLIPPPMPKNQQYRAFGSIWQVKDQLPDLESMGLTQLYKKSTENESTNYQYKIQELRKLLKSLLLNYLELIGVLSINPDMYERKVENIRTILVNIHHLLNEYRPHQSRESLIMLLEEQLEYKRGEIREIEQVCKQVHDKLTSIQDTLRTGSQSPPSSSQ
notes: Med7, Mediator middle module subunit, S. cerevisiae; Stood in the assay as a subunit of cMed
B6: Med4 (natural protein, S. cerevisiae)
chain: MSVQDTKAVEFSMGHIRSSSVSLVAEATSNTNSEDKLSKVQLYEDLCRYEDTLSKLVESVDRFKPNLDIAKDLIRTDEALFENVKLLAEYDNIYRNLQKIDKDSEELDSKTRKILEILNECHDELKALPMLEQVEFEKNTILQQRSKINSTELLDYATKLSKFTKIPPTFDKGAVGPNNFIWPAEDALRRGMLAMASLHSKELTRIPGEEVEETEVPTVPPSQSEEQKGQMAKKEGTPKTDSFIFDGTAKEVGDEADNTKDKEKEENNDDALDLDLDLFDPDDF
notes: Med4, Mediator middle module subunit, S. cerevisiae; Stood in the assay as a subunit of cMed
B7: Med6 (natural protein, S. cerevisiae)
chain: MNVTPLDELQWKSPEWIQVFGLRTENVLDYFAESPFFDKTSNNQVIKMQRQFSQLNDPNAAVNMTQNIMTLPDGKNGNLEEEFAYVDPARRQILFKYPMYMQLEEELMKLDGTEYVLSSVREPDFWVIRKQRRTNNSGVGSAKGPEIIPLQDYYIIGANIYQSPTIFKIVQSRLMSTSYHLNSTLESLYDLIEFQPSQGVHYKVPTDTSTTATAATNGNNAGGGSNKSSVRPTGGANMATVPSTTNVNMTVNTMGTGGQTIDNGTGRTGNGNMGITTEMLDKLMVTSIRSTPNYI
notes: Med6, Mediator head module subunit, S. cerevisiae; Stood in the assay as a subunit of cMed

biological target: T1, Rpb1 (RNA polymerase II subunit carrying the C-terminal repeat domain) (S. cerevisiae, UniProt P04050 1-1733); experiment: cryo-EM structure; PIC-cMed-nucleosome complex assembled from the prepared factors on a His4 promoter / Widom-601 nucleosome template; GraFix sucrose gradient with glutaraldehyde cross-linking; 100 mM KCl, 25 mM K-HEPES pH 7.5, 2 mM MgCl2, 1 mM TCEP; reconstructions at 3.0 Å (PIC-cMed) and 3.6 Å (PIC-cMed-nucleosome), focused maps to 2.9-3.3 Å; details: both partners purified
T1 construct: Rpb1, subunit of RNA polymerase II, S. cerevisiae, with its C-terminal repeat domain (CTD) of 26 heptapeptide repeats of consensus YSPTSPS; Stood in the assay as a subunit of Pol II within the PIC; CTD peptides 1, 2 and 3 are stretches of its CTD seen in the map (6, 3 and 2 repeats); their register within the CTD could not be assigned; also called Rpb1 CTD; Pol II CTD
T1 sequence (P04050 whole entry, the tested form may be a part): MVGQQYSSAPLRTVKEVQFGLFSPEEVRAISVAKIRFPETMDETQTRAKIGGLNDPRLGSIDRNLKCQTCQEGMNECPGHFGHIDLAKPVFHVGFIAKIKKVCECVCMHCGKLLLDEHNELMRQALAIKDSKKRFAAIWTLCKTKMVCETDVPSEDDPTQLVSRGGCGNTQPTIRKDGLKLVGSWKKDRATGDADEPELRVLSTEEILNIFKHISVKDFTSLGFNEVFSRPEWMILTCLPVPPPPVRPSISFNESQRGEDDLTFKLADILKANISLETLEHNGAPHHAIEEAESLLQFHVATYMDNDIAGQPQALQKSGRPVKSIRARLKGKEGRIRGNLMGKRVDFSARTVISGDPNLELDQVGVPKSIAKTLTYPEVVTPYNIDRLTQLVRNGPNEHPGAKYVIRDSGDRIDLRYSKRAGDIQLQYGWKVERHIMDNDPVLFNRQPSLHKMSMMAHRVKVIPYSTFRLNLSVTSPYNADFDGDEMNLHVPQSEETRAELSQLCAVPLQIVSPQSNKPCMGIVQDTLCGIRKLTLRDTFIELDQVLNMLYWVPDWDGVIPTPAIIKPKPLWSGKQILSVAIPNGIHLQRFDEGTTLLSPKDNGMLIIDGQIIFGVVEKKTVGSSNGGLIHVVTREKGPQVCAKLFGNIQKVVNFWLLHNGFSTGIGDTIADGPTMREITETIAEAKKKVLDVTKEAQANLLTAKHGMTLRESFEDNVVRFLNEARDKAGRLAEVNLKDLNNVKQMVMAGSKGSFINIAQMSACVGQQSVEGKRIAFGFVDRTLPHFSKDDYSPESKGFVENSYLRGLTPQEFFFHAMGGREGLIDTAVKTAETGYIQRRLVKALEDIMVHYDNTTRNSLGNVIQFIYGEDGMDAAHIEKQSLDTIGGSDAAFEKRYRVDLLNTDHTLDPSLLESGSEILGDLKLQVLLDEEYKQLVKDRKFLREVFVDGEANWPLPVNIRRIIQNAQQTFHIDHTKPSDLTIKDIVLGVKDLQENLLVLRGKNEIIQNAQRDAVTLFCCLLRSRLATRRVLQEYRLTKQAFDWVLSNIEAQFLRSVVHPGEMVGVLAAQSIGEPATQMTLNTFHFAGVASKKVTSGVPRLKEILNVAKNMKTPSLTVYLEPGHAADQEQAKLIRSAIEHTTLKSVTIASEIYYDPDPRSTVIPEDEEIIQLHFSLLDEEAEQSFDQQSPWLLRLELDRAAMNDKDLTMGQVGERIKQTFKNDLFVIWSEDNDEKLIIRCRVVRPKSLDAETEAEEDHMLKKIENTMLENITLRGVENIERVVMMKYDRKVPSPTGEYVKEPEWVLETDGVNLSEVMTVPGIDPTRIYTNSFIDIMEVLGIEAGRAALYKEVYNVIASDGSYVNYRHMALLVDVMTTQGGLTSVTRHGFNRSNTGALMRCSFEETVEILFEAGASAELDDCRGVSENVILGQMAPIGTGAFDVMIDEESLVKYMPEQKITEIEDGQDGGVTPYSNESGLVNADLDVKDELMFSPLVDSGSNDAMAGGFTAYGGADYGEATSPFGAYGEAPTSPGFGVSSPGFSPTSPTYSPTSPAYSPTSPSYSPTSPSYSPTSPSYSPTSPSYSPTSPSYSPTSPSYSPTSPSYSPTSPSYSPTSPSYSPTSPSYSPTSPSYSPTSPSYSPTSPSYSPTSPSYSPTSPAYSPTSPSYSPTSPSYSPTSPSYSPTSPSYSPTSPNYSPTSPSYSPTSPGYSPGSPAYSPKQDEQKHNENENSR

Binding result, binds:
B1
B2
B3
B4
B5
B6
B7
